Laboratory results as given in paper doi:10.1101/2021.10.29.466147 (bioRxiv, 2021).

What was measured:
[1] = biological target: condensin holo complex Smc2-Smc4-Brn1-Ycs4-Ycg1, Walker B EQ mutant (Saccharomyces cerevisiae, UniProt P38989;Q12267;P38170;Q06156;Q06680 1-1170;1-1418;1-754;1-1176;1-1035, E1113Q;E1352Q); experiment: cryo-EM
[2] = biological target: T1, Ycs4, HEAT-repeat subunit I of S. cerevisiae condensin (S. cerevisiae, UniProt Q06156 1-1176); experiment: cryo-EM structure
T1 sequence: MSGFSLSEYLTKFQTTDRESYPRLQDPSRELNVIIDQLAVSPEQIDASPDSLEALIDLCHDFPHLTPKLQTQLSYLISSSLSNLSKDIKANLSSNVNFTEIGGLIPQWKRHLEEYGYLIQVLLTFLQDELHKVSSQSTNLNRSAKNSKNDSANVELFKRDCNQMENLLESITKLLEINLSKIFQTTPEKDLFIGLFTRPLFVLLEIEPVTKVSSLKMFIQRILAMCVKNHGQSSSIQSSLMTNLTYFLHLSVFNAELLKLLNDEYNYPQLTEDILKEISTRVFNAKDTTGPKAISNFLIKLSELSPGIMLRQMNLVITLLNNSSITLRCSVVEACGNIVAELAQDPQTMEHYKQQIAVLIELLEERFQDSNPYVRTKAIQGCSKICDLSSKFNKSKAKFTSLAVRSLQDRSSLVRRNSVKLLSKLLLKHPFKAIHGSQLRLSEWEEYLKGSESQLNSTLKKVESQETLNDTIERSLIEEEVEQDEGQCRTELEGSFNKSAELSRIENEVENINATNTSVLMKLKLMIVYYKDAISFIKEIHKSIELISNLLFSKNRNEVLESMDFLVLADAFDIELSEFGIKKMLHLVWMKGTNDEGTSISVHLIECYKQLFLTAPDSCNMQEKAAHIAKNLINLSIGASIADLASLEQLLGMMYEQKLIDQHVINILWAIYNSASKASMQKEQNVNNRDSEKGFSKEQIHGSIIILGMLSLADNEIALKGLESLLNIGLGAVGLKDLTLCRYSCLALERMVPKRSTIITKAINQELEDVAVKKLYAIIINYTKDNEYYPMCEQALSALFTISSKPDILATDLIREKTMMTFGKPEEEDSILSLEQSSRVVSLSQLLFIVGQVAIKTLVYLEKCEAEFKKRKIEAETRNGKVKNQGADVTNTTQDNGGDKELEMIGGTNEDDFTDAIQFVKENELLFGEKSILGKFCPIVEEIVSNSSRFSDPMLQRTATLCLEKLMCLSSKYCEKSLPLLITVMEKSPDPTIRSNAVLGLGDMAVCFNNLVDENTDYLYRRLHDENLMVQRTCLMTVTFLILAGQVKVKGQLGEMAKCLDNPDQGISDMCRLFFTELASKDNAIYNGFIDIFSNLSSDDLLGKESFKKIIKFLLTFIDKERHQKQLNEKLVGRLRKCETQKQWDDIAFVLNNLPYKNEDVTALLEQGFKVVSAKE

[3] = biological target: T2, Ycg1, HEAT-repeat subunit II of S. cerevisiae condensin (S. cerevisiae, UniProt Q06680 1-1035); experiment: co-purification
T2 sequence (looked up): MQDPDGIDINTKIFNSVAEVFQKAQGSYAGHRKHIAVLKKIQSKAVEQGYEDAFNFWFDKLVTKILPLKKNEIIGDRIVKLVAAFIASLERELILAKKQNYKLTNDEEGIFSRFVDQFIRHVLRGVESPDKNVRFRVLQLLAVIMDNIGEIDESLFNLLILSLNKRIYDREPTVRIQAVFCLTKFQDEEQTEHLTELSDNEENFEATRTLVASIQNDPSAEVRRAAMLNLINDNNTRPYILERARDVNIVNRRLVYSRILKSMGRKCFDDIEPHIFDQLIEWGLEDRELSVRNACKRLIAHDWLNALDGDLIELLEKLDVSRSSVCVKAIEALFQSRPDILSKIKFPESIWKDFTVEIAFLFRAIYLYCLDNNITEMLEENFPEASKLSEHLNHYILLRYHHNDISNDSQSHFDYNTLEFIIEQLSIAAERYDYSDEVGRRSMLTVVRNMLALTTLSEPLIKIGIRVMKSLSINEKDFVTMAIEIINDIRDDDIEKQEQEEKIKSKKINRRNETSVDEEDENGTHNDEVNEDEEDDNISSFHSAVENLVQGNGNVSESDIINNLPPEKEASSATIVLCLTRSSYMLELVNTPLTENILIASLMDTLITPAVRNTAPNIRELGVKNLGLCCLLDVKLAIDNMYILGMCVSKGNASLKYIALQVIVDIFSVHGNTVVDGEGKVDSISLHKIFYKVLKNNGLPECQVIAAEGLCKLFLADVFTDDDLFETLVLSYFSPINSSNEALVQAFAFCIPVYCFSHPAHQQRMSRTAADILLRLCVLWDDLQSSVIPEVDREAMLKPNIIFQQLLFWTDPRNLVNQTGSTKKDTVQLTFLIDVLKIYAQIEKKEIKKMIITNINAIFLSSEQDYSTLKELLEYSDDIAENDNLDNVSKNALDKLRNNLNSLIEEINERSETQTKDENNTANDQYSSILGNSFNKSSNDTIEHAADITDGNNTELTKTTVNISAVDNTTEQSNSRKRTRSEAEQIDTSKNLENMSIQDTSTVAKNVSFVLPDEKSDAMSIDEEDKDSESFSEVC

condensin holo complex Smc2-Smc4-Brn1-Ycs4-Ycg1, Walker B EQ mutant, sequence (P38989 whole entry E1113Q, chain 1 of 2): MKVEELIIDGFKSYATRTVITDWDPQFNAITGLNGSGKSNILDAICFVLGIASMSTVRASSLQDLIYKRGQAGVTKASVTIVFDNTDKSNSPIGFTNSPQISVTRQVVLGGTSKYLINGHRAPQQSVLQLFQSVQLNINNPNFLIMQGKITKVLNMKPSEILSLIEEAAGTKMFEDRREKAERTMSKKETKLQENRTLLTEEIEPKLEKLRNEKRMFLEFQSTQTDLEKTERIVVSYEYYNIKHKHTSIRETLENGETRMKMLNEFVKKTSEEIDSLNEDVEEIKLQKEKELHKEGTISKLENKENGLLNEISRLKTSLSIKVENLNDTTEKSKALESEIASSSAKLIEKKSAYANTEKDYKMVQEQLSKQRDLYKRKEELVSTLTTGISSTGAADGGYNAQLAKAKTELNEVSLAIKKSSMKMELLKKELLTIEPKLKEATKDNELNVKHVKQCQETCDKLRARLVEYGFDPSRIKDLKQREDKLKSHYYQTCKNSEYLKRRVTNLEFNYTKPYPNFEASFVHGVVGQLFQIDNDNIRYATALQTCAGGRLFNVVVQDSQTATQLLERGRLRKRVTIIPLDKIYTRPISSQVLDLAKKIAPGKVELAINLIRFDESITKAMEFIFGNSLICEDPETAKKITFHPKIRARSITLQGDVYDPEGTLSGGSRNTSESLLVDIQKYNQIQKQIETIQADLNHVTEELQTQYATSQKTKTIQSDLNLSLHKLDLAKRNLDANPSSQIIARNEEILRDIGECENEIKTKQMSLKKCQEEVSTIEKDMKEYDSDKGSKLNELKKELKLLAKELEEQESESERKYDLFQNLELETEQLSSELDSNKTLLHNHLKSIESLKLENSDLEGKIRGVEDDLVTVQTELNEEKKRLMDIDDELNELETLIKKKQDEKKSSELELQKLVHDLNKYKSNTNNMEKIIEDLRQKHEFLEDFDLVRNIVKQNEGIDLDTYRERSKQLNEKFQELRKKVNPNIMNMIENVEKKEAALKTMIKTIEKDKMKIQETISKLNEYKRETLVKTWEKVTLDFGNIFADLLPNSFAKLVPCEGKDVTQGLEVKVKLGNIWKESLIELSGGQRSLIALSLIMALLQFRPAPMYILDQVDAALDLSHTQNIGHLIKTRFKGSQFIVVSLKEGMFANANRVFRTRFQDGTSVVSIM
condensin holo complex Smc2-Smc4-Brn1-Ycs4-Ycg1, Walker B EQ mutant, sequence (Q12267 whole entry E1352Q, chain 2 of 2): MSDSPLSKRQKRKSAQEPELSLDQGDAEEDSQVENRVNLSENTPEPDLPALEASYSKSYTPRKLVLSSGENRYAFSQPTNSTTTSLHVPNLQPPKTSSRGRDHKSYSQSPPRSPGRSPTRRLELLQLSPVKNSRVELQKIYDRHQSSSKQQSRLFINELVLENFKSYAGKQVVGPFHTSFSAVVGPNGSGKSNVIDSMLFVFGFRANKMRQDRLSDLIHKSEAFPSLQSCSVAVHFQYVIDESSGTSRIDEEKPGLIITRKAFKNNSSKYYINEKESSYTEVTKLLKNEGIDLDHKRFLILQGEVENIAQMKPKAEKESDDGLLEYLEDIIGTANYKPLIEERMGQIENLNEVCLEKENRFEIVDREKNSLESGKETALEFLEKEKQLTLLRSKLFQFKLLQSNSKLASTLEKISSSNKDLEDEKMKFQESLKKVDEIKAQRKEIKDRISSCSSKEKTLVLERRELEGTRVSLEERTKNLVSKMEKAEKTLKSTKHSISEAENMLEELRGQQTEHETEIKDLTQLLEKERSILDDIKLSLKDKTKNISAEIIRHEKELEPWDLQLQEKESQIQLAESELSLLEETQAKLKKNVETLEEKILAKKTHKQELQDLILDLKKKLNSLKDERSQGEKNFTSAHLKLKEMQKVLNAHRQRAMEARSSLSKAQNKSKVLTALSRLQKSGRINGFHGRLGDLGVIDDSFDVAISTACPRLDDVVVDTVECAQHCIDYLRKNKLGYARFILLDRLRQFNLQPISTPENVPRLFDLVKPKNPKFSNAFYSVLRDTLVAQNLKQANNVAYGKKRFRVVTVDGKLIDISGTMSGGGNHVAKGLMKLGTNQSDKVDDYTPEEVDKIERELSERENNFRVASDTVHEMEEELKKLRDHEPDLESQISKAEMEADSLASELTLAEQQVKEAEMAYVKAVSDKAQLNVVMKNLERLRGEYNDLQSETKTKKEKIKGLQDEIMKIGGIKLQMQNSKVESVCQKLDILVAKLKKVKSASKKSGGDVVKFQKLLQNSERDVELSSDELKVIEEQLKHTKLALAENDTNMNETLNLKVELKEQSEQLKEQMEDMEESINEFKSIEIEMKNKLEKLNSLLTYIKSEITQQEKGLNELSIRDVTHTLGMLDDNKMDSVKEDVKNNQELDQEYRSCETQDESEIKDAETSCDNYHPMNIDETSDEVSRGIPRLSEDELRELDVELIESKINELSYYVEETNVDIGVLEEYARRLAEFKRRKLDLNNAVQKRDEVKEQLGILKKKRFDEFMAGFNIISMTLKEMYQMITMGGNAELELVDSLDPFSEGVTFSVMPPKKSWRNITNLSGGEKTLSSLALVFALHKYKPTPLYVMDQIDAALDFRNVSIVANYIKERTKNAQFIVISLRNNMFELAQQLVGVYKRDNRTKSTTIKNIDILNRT

B1: 50-bp dsDNA (cryo-EM) (dsDNA)
DNA 1: GTTGACAGTGTCGCAACCTGCACAGGCAAGCTGCTGAGTCTGGTGTAGAC
DNA 2: GTCTACACCAGACTCAGCAGCTTGCCTGTGCAGGTTGCGACACTGTCAAC
[1]
  binding result: binds

B2: Brn1-His12-HA3, kleisin subunit of S. cerevisiae condensin (natural protein)
chain: MTTQLRYENNDDDERVEYNLFTNRSTMMANFEEWIKMATDNKINSRNSWNFALIDYFYDLDVLKDGENNINFQKASATLDGCIKIYSSRVDSVTTETGKLLSGLAQRKTNGASNGDDSNGGNGEGLGGDSDEANIEIDPLTGMPISNDPDVNNTRRRVYNRVLETTLVEFETIKMKELDQELIIDPLFKKALVDFDEGGAKSLLLNTLNIDNTARVIFDASIKDTQNVGQGKLQRKEEELIERDSLVDDENEPSQSLISTRNDSTVNDSVISAPSMEDEILSLGMDFIKFDQIAVCEISGSIEQLRNVVEDINQAKDFIENVNNRFDNFLTEEELQAAVPDNAEDDSDGFDMGMQQELCYPDENHDNTSHDEQDDDNVNSTTGSIFEKDLMAYFDENLNRNWRGREHWKVRNFKKANLVNKESDLLEETRTTIGDTTDKNTTDDKSMDTKKKHKQKKVLEIDFFKTDDSFEDKVFASKGRTKIDMPIKNRKNDTHYLLPDDFHFSTDRITRLFIKPGQKMSLFSHRKHTRGDVSSGLFEKSTVSANHSNNDIPTIADEHFWADNYERKEQEEKEKEQSKEVGDVVGGALDNPFEDDMDGVDFNQAFEGTDDNEEASVKLDLQDDEDHKFPIRENKVTYSRVSKKVDVRRLKKNVWRSINNLIQEHDSRKNREQSSNDSETHTEDESTKELKFSDIIQGISKMYSDDTLKDISTSFCFICLLHLANEHGLQITHTENYNDLIVNYEDLATTQAAS
[2]
  binding result: binds
[3]
  binding result: binds
